Target: type-2 neurotensin receptor of rats (rNT-R2) (rat)
Assay: displacement of 0.2 nM 125I-neurotensin from COS-3 cells transfected with rNT-R2

IC50: 5.1 nM
Substance: neuromedin N (from UniProt P30990) (peptide)
